Assay results: the supplement of paper PMC7125110
± gives the standard error. Fewer inactive variants are shown than the library holds.

B1: glmS ribozyme (parent)
chain: AUAAAAGCGCCAGAACUACAGAAAUGUAGUUGACGAGGAGGAGGUUUAUCGAAUUUUCGGCGGAUGCCUCCAAA

Variants of: B1
Assay: self-cleavage kobs at 2500 uM GlcN6P; higher = faster cleavage; RNA array
Details: with glucosamine-6-phosphate
In short: (§1)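 Tracking of barcoded ribozyme variants used a hybridised Cy3 probe at 37 °C, after in situ transcription by E. coli RNA polymerase on sequenced MiSeq chips. The flowed solution held 40 μM to 10 mM glucosamine-6-phosphate in HEPES/KCl/Mg(OAc)2 buffer, and imaging ran over ~14 h. kobs was taken from exponential decay fits of normalised per-tile medians, and kcat and KM from weighted Michaelis–Menten fits.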

Row | Variant | self-cleavage kobs at 2500 uM GlcN6P [s⁻¹]
1 | A33G C34U U49A | < 1e-05
2 | A14G G37U G44U | < 1e-05
3 | G13C A42U G43C G51C U57G A64G C71U | < 1e-05
4 | A39C G44C C67A | 0.000176 ± 4.5e-05
5 | A15C U31G G59C | < 1e-05
6 | A12U G40A A53C | 0.00179 ± 0.00063
7 | C16A A36C U49A U65G | < 1e-05
8 | G35U G41A A52U C71U | < 1e-05
9 | U31A A39G C67U | 0.00111 ± 0.0004
10 | A12G U56G C70G | 0.000113 ± 3e-05
11 | A33C U56G | 5.24e-05 ± 2.2e-05
12 | G29U U57A C68G | 8.07e-05 ± 2.8e-05
13 | A12C U49G G62U | < 1e-05
14 | C16A G32U U55G | 0.000117 ± 3.5e-05
15 | G29A G41A | 6.8e-05 ± 2e-05
16 | U30A A36U C71A | < 1e-05
17 | A15G G32A C68U | 0.000247 ± 8.7e-05
18 | A12G A53C U56G | 5.07e-05 ± 1.5e-05
19 | A14G A36G C58G | < 1e-05
20 | U30C U31C A53U U55A | 0.00034 ± 7.2e-05
21 | G37U G38C U55C | < 1e-05
22 | G41A U49C U57A G59U C68G | < 1e-05
23 | U31G G32U C58U | 8.74e-05 ± 2.9e-05
24 | A15G A33G A48C C61A | < 1e-05
25 | A33G A36G G38U C61U C71A | < 1e-05
26 | C16G G59U G60C C68G | < 1e-05
27 | G41A A42U G62A | < 1e-05

Row | Variant | self-cleavage kobs at 2500 uM GlcN6P [s⁻¹]
28 | G32A G35A C61U C71U | < 1e-05
29 | U30G A53C U54A | 0.000695 ± 0.00017
30 | G41C A42G C70A | 6.34e-05 ± 1.5e-05
31 | G13C U47A U69G | 0.000497 ± 0.00015
32 | A14C C34G A48C | < 1e-05
33 | U30A U56A G60U | < 1e-05
34 | A12U C16U C70A | 0.000361 ± 0.00013
35 | A12G A53G G63C | < 1e-05
36 | A12U G44C A53G U56A | 7.9e-05 ± 2.1e-05
37 | A14G G32U U55G | 0.000962 ± 0.00018
38 | G41C A48C A64G | < 1e-05
39 | A12G U45G U54G | 0.000192 ± 5.5e-05
40 | A15G U31G U47G | 0.000803 ± 0.00015
41 | G13A A36U G40A | < 1e-05
42 | A36C C61G G63U C68A | 0.000112 ± 3.9e-05
43 | A14C A33G G35C G38C G44A A48U C50U | < 1e-05
44 | U30C G37C G38C C61U | < 1e-05
45 | A33U C34A G38A C50A C70G | 0.00153 ± 0.0004
46 | A33U G40C U46G C50U | < 1e-05
47 | C16A A53U U55A | 0.000149 ± 3.9e-05
48 | G37A G43C C58G | < 1e-05
49 | A12C A15U G41A A53C C58U U65A | < 1e-05
50 | G41U C50G U57C C58U C70U | < 1e-05
51 | A39U G59A A64C | < 1e-05
52 | G41U A53U U56G | 0.00031 ± 9.3e-05
53 | U30G G37A A42U | 6.68e-05 ± 1.2e-05
54 | G37C C67U C71A | 5.9e-05 ± 2.4e-05

Row | Variant | self-cleavage kobs at 2500 uM GlcN6P [s⁻¹]
55 | C16G G43U U45A U65G C68U C70U | < 1e-05
56 | A14G C34A U55G C70A | < 1e-05
57 | A12C G37U A52G | < 1e-05
58 | G32U G43A A64G | < 1e-05
59 | A14G G51C A64U C67G C71U | < 1e-05
60 | A14G G44C | 0.000239 ± 4.2e-05
61 | G35C G41A G44A G66A | < 1e-05
62 | A15U G35C C68G | < 1e-05
63 | G13C U30C G35C G40U U47C C50A | < 1e-05
64 | A14U A52C A53G U55C U57G | < 1e-05
65 | A14U A36U G41A A48G C68U | < 1e-05
66 | C16G U30C A33C C68U | < 1e-05
67 | G35A C50G U54G A64C | 7.23e-05 ± 2.7e-05
68 | A15U U56C U57G G63A C70G | 0.000104 ± 4.9e-05
69 | C34G G38A G44U G63A | < 1e-05
70 | G37U A53C | < 1e-05
71 | U30C U45G C70U | 7.88e-05 ± 1.9e-05
72 | G41A A53C U54C G60C G63U | < 1e-05
73 | G41U U47C G51U | < 1e-05
74 | G32A G51U | < 1e-05
75 | A14G A15C C71A | 0.00262 ± 0.00058
76 | A39G G66A U69G | 3.43e-05 ± 1.3e-05
77 | C16U U31C U46C C70U | 0.000342 ± 0.00015
78 | G41A U46A G66A | 9.01e-05 ± 3.1e-05
79 | A33C U49C C70U | < 1e-05

Variants of: B1
Assay: self-cleavage kobs at 10000 uM GlcN6P; higher = faster cleavage; RNA array
Details: with glucosamine-6-phosphate
In short: as §1

Row | Variant | self-cleavage kobs at 10000 uM GlcN6P [s⁻¹]
80 | A12U G40A A53C | 0.00159 ± 0.00056
81 | A12G U56G C70G | 7.52e-05 ± 2e-05
82 | A33C U56G | 5.35e-05 ± 1e-05
83 | C16A G32U U55G | 0.000315 ± 4.6e-05
84 | G29A G41A | 5.78e-05 ± 1.5e-05
85 | U30A A36U C71A | < 1e-05
86 | A14C C34G A48C | < 1e-05
87 | U30G G37A A42U | 9.36e-05 ± 2.3e-05
88 | A14G G44C | 0.000423 ± 7.7e-05
89 | G37U A53C | < 1e-05
